Common to all, as to assay type: cell-based, Escherichia coli
Series [1] deals with E. coli DH5α cells. The series can be described thus: Penetration efficiency of TAMRA-labeled CPPs, electroporation-based method, flow cytometry. To be noted: for Cell penetration efficiency (TAMRA fluorescence), Electrooration - Tris buffer / Cell penetration efficiency (TAMRA fluorescence), Electrooration - DW: electrocompetent E. coli DH5α, 5 μg TAMRA-CPP, electroporation 1.8 kV; for Cell penetration efficiency (TAMRA fluorescence), Electrooration - Tris buffer: 20 mM Tris-HCl pH 7.5, 1 h; for Cell penetration efficiency (TAMRA fluorescence), Electrooration - DW: distilled water, 1 h; for Penetration efficiency (TAMRA fluorescence in E. coli): library CPPs, electroporation, Tris buffer pH 7.5, 1 h, mean of n = 3–5. An excerpt:
(§1) (Fig. 2a). […] First, we prepared electrocompetent and chemically competent cells.
In general terms: Flow cytometry measures light scatter and fluorescence of single cells or particles in a stream.

Series [2] deals with E. coli DH5α cells. Description: Penetration efficiency of TAMRA-labeled CPPs, chemical (CaCl2) treatment method, flow cytometry. To be noted: for Cell penetration efficiency (TAMRA fluorescence), Chemical (CaCl2) method - Tris buffer / Cell penetration efficiency (TAMRA fluorescence), Chemical (CaCl2) method - DW: 50 mM CaCl2-treated E. coli DH5α, 5 μg TAMRA-CPP; for Cell penetration efficiency (TAMRA fluorescence), Chemical (CaCl2) method - Tris buffer: 20 mM Tris-Cl pH 7.5, 1 h; for Cell penetration efficiency (TAMRA fluorescence), Chemical (CaCl2) method - DW: 5 × 10^7 cells/50 μL, distilled water, 1 h; for Penetration efficiency (TAMRA FI): TAMRA fluorescence intensity in E. coli, library screen of 98 CPPs.
Source text: as §1

Series [3] has as its system E. coli DH5α cells. The series can be described thus: Inhibition of bacterial cell growth by CPPs (Max OD600 relative to control). To be noted: for Growth rate (%): E. coli growth with CPP, relative to control; for Max OD (%) (Figure 3f): E. coli DH5α diluted 1/1000 in LB, 5 μg TAMRA-CPP (0.1 μg/μL), OD600 monitored 18 h, max OD of treated cells / max OD of control cells; for Max OD (%): library CPPs, E. coli growth to stationary phase, relative to non-CPP-treated control, mean of n = 3. Here is the method:
E. coli DH5α cells were grown until OD600 = 1 at 37 °C with shaking at 200 rpm. […] Then, cell growth (OD600) was monitored for 18 h by using the Synergy^TM H1 hybrid multi-mode microplate reader (BioTek, Vermont, USA). As a control, we used E. coli cells that were not treated with CPPs.

Where [4] appears, read: class (Cytotoxic / Safe), cutoff of 50%.

Like-named read-outs stand apart in the source and are kept apart here. Where no end group is shown, it is not given here.

As to “Penetratin (RQIKIWFPNRRMKWKK; also: TAMRA label, site not given here) [CPP 17, TAMRA-labeled CPP of the 98-CPP library, one of five used to evaluate delivery methods]”, the “Cell penetration efficiency (TAMRA fluorescence), Electrooration - Tris buffer” value in series [1] (replicate 1) is 794.592 A.U; in series [1] (replicate 2), 585.819 A.U; in series [1] (replicate 3), 1028.54 A.U; in series [1] (replicate 4), 181.291 A.U. Further, the “Cell penetration efficiency (TAMRA fluorescence), Electrooration - DW” value in series [1] (replicate 1) is 634.038 A.U; in series [1] (replicate 2), 587.6 A.U; in series [1] (replicate 3), 471.96 A.U. The “Cell penetration efficiency (TAMRA fluorescence), Chemical (CaCl2) method - Tris buffer” value in series [2] (replicate 1) is 29.4497 A.U; in series [2] (replicate 2), 24.3955 A.U; in series [2] (replicate 3), 28.6202 A.U. Further, the “Cell penetration efficiency (TAMRA fluorescence), Chemical (CaCl2) method - DW” value in series [2] (replicate 1) turned out to be 134.244 A.U; in series [2] (replicate 2) it was 173.67 A.U; in series [2] (replicate 3) it was 170.238 A.U. In addition, the “Penetration efficiency (TAMRA FI)” value in series [2] amounted to 647.56. In series [3], the Anti-bacterial activity result is reported as “Safe”. The “Growth rate (%)” value in series [3] was 56.8825%.

Turning to “TatsMTS (TMG) (GRKKRRQRRRMVSAL; also: TAMRA label, site not given here) [CPP 71, TAMRA-labeled CPP of the 98-CPP library]”, the “Penetration efficiency (TAMRA fluorescence in E. coli)” value in series [1] is recorded as 3266.3 A.U. For the same substance, the “Max OD (%) (Figure 3f)” value in series [3] (replicate 1) was found to be 73.904%; in series [3] (replicate 2) it was 87.9958%; in series [3] (replicate 3), 80.3758%. In addition, in series [3], the “Growth rate (%)” value came to 80.7585%. For the same substance, the Anti-bacterial activity entry in series [3] (setting [4]) was “Safe”. Also, the “Max OD (%)” value in series [3] came out at 80.8%.

Take “Tat (GRKKRRQRRRPPQRKC; also: TAMRA label, site not given here) [CPP 67, TAMRA-labeled CPP of the 98-CPP library]”: in series [1], the “Penetration efficiency (TAMRA fluorescence in E. coli)” value was 2821.8 A.U. Further, the “Max OD (%) (Figure 3f)” value is recorded as 60.9603% in series [3] (replicate 1), 54.071% in series [3] (replicate 2) and 61.2735% in series [3] (replicate 3). The “Growth rate (%)” value in series [3] is reported as 58.7683%. Besides, the Anti-bacterial activity entry in series [3] (setting [4]) is on record as “Safe”. Moreover, in series [3], the “Max OD (%)” value is 58.8%.

As to “Tat48-57 (GRKKRRQRRR; also: TAMRA label, site not given here) [CPP 70, TAMRA-labeled CPP of the 98-CPP library]”, the “Penetration efficiency (TAMRA fluorescence in E. coli)” value in series [1] is listed as 4043.3 A.U. The “Max OD (%) (Figure 3f)” value in series [3] (replicate 1) came out at 81.1065%; in series [3] (replicate 2), 82.6722%; in series [3] (replicate 3) it was 78.7056%. In series [3], the “Growth rate (%)” value is on record as 80.8281%. Also, the Anti-bacterial activity result in series [3] (setting [4]) is “Safe”. Moreover, in series [3], the “Max OD (%)” value amounted to 80.8%.

rrrrrrrrrcqcrrkn [CPP 80]: the “Penetration efficiency (TAMRA FI)” value in series [2] amounted to 1432.29. Also, the results for the “Max OD (%) (Figure 3f)” value in series [3] (replicate 1), in series [3] (replicate 2) and in series [3] (replicate 3) were 65.3033%, 60% and 55.5286%, respectively. Besides, in series [3], the “Growth rate (%)” value worked out at 60.2773%. Moreover, the Anti-bacterial activity result in series [3] (setting [4]) was “Safe”.

As to “CTP (GGRRARRRRRR; also: TAMRA label, site not given here) [CPP 96, TAMRA-labeled CPP of the 98-CPP library]”, in series [1], the “Penetration efficiency (TAMRA fluorescence in E. coli)” value turned out to be 3688.0 A.U. Besides, the “Max OD (%) (Figure 3f)” value in series [3] (replicate 1) is recorded as 80.7143%; in series [3] (replicate 2), 88.7755%; in series [3] (replicate 3) it was 86.7347%. Also, the “Growth rate (%)” value in series [3] is given as 85.4082%. For the same substance, the Anti-bacterial activity entry in series [3] (setting [4]) is “Safe”. For the same substance, the “Max OD (%)” value in series [3] was 85.4%.

“Tat49-57 (RKKRRQRRR; also: TAMRA label, site not given here) [CPP 45, TAMRA-labeled CPP of the 98-CPP library]”: the “Penetration efficiency (TAMRA fluorescence in E. coli)” value in series [1] was 2837.5 A.U. The figures for the “Max OD (%) (Figure 3f)” value in series [3] (replicate 1), in series [3] (replicate 2) and in series [3] (replicate 3) were 75.4515%, 62.3077% and 70.8361%, respectively. For the same substance, in series [3], the “Growth rate (%)” value was determined as 69.5318%. The Anti-bacterial activity entry in series [3] (setting [4]) is on record as “Safe”. Moreover, the “Max OD (%)” value in series [3] was 69.5%.

(Values after paper PMC7884711, “Identification of efficient prokaryotic cell-penetrating peptides with applications in bacterial biotechnology” (Communications Biology, 2021).)
